Experiment [1] addresses T1, Human factor IX (FIX) (human, UniProt P00740 47-461, 12 glutamic acid residues in the GLA domain post-translationally gamma-carboxylated (general description)).
T1 construct: mature; Bought reagent, used as SPR analyte
The experiment in a line: SPR Biacore 8K, IgG captured on anti-human IgG Fc, FIX analyte, 25 C, 1:1 fit. The protocol:
An anti-human IgG Fc antibody was immobilised on CM4 chip (GE Healthcare catalog number BR100534) according to manufacturer's instructions. Amine coupling kit (BioRad) was used to activate the surface of the chip. […] The immobilisation run was performed at 25° C. using HBS-EP (10 mM HEPES pH 7.4, 150 mM NaCl, 3 mM EDTA, 0.05% Polysorbate 20 pH 7.6) as immobilisation running buffer.
Purified monospecific antibodies (referred to as ligand) from Example 13 were captured on the anti-human IgG Fc CM4 surface at approximately 2 μg/ml. The ligands were injected for 60 sec at 10 μl/min in all the active channels of all 8 flow channels. The run was performed at 25° C. using neutral pH (pH 7.4) HBS-P 1× (0.01 M HEPES pH 7.4, 0.15 M NaCl, 0.05% Polysorbate 20 pH 7.6)+CaCl₂) 2.5 mM as running buffer. Human factor IX (FIX) (Enzyme Research Laboratories cat n. HFIX 47064) was reconstituted at 1 mg/ml (MW ˜55 KDa) in the running buffer and used as analyte. […] Three injections of 10 mM glycine pH 1.5 for 60 sec at 10 μl/min were used for the regeneration phase.
The association and dissociation data of the interaction were fitted using biomolecular reaction model (1:1 Langmuir model). The values for association rate constant (kₒₙ), dissociation rate constant (koff) and dissociation constant (KD) were calculated from the binding data by BIAevaluation software.
(SPR reads the build-up and loss of mass on a sensor chip optically.)

The target of experiment [2] is Human Factor X (FX) (human, UniProt P00742 41-179; P00742 183-488, limits assumed). The experiment can be described thus: SPR Biacore 8K, IgG captured on anti-human IgG Fc, FX analyte, 25 C, 1:1 fit. The method, then:
Amine coupling kit (BioRad) was used to activate the surface of the chip. […] The immobilisation run was performed at 25° C. using HBS-EP (10 mM HEPES pH 7.4, 150 mM NaCl, 3 mM EDTA, 0.05% Polysorbate 20 pH 7.6) as immobilisation running buffer.
The run was performed at 25° C. using neutral pH (pH 7.4) HBS-P 1× (0.01 M HEPES pH 7.4, 0.15 M NaCl, 0.05% Polysorbate 20 pH 7.6)+CaCl₂) 2.5 mM as running buffer.

Chain of Human Factor X (FX) (P00742 41-179 limits assumed, form in doubt, chain 1 of 2): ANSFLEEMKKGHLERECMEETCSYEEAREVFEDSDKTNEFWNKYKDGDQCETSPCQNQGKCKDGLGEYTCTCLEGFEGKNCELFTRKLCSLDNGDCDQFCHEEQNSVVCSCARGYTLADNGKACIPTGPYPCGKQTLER
Chain of Human Factor X (FX) (P00742 183-488 limits assumed, form in doubt, chain 2 of 2): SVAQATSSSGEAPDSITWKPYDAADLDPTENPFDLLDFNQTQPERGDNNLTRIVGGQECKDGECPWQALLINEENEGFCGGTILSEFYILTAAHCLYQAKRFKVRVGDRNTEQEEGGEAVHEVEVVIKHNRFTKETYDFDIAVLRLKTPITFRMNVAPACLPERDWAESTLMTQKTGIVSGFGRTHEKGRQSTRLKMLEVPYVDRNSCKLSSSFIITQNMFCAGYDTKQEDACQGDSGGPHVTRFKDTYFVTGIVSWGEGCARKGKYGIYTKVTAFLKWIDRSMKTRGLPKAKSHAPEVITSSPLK

B1: N225H_IgG4PE + N128L_IgL (antibody, V domains shown)
VH: EVQLVESGGGFVQPGGSLRLSCAVSGFTFNSYWMSWVRQAPGKGLEWVANINQDGSEKFYVASVKGRFTISRDNAKKSVYLQMNSLRAEDTAVYYCAREGYSSSSYYGMDVWGQGTTVTVSS
VL: SYVLTQPPSVSVAPGETARITCGGDNIGRKSVYWYQQKSGQAPVLVIYYDSDRPSGIPERFSGSNSGNTATLTISRVEAGDEADYYCQVWDGSSDHWVFGGGTKLTVLG
notes: Monospecific IgG4PE with lambda light chain
Consider B1, for which, in experiment [1], the equilibrium dissociation constant (Kd) – broadly, a measure of binding affinity in units of concentration – came to 428 nM; the koff (as a rule, the first-order rate constant of dissociation) was 0.031 s⁻¹; the kon – broadly, a measure of how fast the partners come together – is 72300 M⁻¹ s⁻¹.

B2: T25H_IgG4PE + T25L_IgK (antibody, V domains shown)
VH: QVQLQESGPGLVKPSETLSLTCTVSGGSISSGIYYWSWIRQHPGKGLEWIGYINNSGNTYYNPSLKGRVNISVDTSKKQFSLKLSSVTDADTAVYYCARGGSGDYWGQGTLVTVSS
VL: EIVLTQSPATLSLSPGERATLSCRTSQSINNYLAWFQQKPGQAPRLLIYDASNRAPGIPARFSGSGSGTDFTLTISSLEPEDFVVYFCQQRNNWPPTFGQGTKVEIKR
notes: Monospecific IgG4PE, kappa; Kappa junction as noted for T14
In experiment [2], B2 showed a Kd of 3.57 nM.

The values are drawn from patent US20200148787A1 (KYMAB, published 2020).
